From paper PMC10899662, “TopBP1 utilises a bipartite GINS binding mode to support genome replication” (Nature Communications, 2024)

Tested on: GINS
Assay: Competition of PolE2-N with TopBP1 for immobilised GINS
Assay type: binding
Details: 150 mM NaCl; ten times molar excess of PolE2-N
From the text: We next explored the relationship between the interactions of TopBP1 and DNA Polε with GINS. These proteins are part of the recently characterised metazoan pre-LC[37]–[40]. […] These pre-LC models are less informative on how DNA Polε affects the TopBP1-GINS interaction. The N-terminal region of PolE2 (PolE2-N; aa 1–75) binds GINS mainly at the Psf1-B domain, with minor interactions with residues in the A-domain that partly overlap with the TopBP1-BRCT4 interaction surface (Fig. 7a–c). To test if the Psf1-B domain is required for TopBP1 interaction, we did pulldowns with GINS lacking the Psf1-B domain (Psf1-ΔB). […] This could be due to a residual affinity of BRCT4 for Psf1-ΔB or due to the GINI-Psf1 interaction. We therefore analysed specifically the interaction of GINS with BRCT4 using the TopBP1-Gcc mutant. […] The moderate effect of the B domain deletion on BRCT4 binding is consistent with the partial overlap of the BRCT4 and PolE2 binding sites in Psf1. […] Together, in pre-LC, TopBP1 likely binds GINS through the GINI region, potentially also involving a residual affinity of BRCT4 for GINS despite the presence of DNA Polε. TopBP1 and GINS are likely further stabilised in pre-LCs via their interactions with DONSON[37],[38],[41]. […]

B1: TopBP1-BRCT0-5-WT: recombinant TopBP1 amino acids 1–766, strep-tagged (protein)
chain: MSRNDKEPFFVKFLKSSDNSKCFFKALESIKEFQSEEYLQIITEEEALKIKENDRSLYICDPFSGVVFDHLKKLGCRIVGPQVVIFCMHHQRCVPRAEHPVYNMVMSDVTISCTSLEKEKREEVHKYVQMMGGRVYRDLNVSVTHLIAGEVGSKKYLVAANLKKPILLPSWIKTLWEKSQEKKITRYTDINMEDFKCPIFLGCIICVTGLCGLDRKEVQQLTVKHGGQYMGQLKMNECTHLIVQEPKGQKYECAKRWNVHCVTTQWFFDSIEKGFCQDESIYKTEPRPEAKTMPNSSTPTSQINTIDSRTLSDVSNISNINASCVSESICNSLNSKLEPTLENLENLDVSAFQAPEDLLDGCRIYLCGFSGRKLDKLRRLINSGGGVRFNQLNEDVTHVIVGDYDDELKQFWNKSAHRPHVVGAKWLLECFSKGYMLSEEPYIHANYQPVEIPVSHKPESKAALLKKKNSSFSKKDFAPSEKHEQADEDLLSQYENGSSTVVEAKTSEARPFNDSTHAEPLNDSTHISLQEENQSSVSHCVPDVSTITEEGLFSQKSFLVLGFSNENESNIANIIKENAGKIMSLLSRTVADYAVVPLLGCEVEATVGEVVTNTWLVTCIDYQTLFDPKSNPLFTPVPVMTGMTPLEDCVISFSQCAGAEKESLTFLANLLGASVQEYFVRKSNAKKGMFASTHLILKERGGSKYEAAKKWNLPAVTIAWLLETARTGKRADESHFLIENSTKEERSLETEITNGINLNSDTAEHP
modifications: left off: Strep, C-terminal, kept
notes: recombinant TopBP1 amino acids 1–766, strep-tagged
  competition by PolE2-N in stringent pulldown conditions: largely resistant to PolE2 competition
